{"source": "patent US8273705B2", "about": "“Conversion of apoptotic proteins” (The Burnham Institute, priority 2002, dated 2012)", "molecules": {"B1": {"name": "TR3/ΔDBD: TR3 mutant with the DNA binding domain removed; used as GFP fusion (protein)", "chain": "MPCIQAQYGTPAPSPGPRDHLASDPLTPEFIKPTMDLASPEAAPAAPTALPSFSTFMDGYTGEFDTFLYQLPGTVQPCSSASSSASSTSSSSATSPASASFKFEDFQVYGCYPGPLSGPVDEALSSSGSDYYGSPCSAPSPSTPSFQPPQLSPWDGSFGHFSPSQTYLVLHRLQCARGFGDWIDSILAFSRSLHSLLVDVPAFACLSALVLITDRHGLQEPRRVEELQNRIASCLKEHVAAVAGEPQPASCLSRLLGKLPELRTLCTQGLQRIFYLKLEDLVPPPPIIDKIFMDTLPF", "modifications": "left off: large carriers; small tags and cut ends", "notes": "used as GFP fusion"}}, "key": {"[1]": {"tested_on": "Calu-6 lung cancer cells", "assay": "DAPI apoptosis assay in Calu-6 cells", "assay_type": "cell-based", "experimental": "(§1) Apoptosis assays—For nuclear morphological change analysis, cells were trypsinized, washed with PBS, fixed with 3.7% paraformaldehyde, and stained with DAPI (4,6-diamidino-2-phenylindole) (50 μg/ml) to visualize the nuclei by UV-microscopy. The percentages of apoptotic cells were determined by counting 300 GFP-positive cells, scoring cells having nuclear fragmentation and/or chromatin condensation.\n(§2) DAPI staining was used to study the apoptotic effect of TR3/Bcl-2 interaction. 293T cells were transfected with GFP-TR3/ΔDBD alone or together with Bcl-2. After 36 h, nuclei were stained by DAPI and nuclear fragmentation and chromatin condensation were identified. Cells were also stained with anti-Bcl-2 antibody, followed by TRITC-conjugated secondary antibody (Sigma). Bcl-2 and GFP-ΔDBD expression and nuclear morphology were visualized by fluorescence microscopy, and the two images were overlaid. […] But, when Bcl-2 was cotransfected, a significant amount of transfected cells underwent apoptosis. For example, approximately 4% of cells transfected with either TR3/ΔDBD or Bcl-2 were apoptotic, compared to 35% of cell transfected with both. […] Cotransfection of Bcl-2, however, prevented BAX-induced apoptosis in these cells (see FIG. 4). The effect of Bcl-2 on apoptotic potential of TR3/ΔDBD in lung cancer and breast cancer cells was also investigated."}, "[2]": {"tested_on": "MDA-MB-231 cells", "assay": "GFP-TR3/ΔDBD localization and cytochrome c release in MDA-MB-231 cells", "assay_type": "cell-based", "conditions": "MDA-MB-231, absence of any treatment", "experimental": "Subcellular localization assays—Cells were seeded onto cover-slips in 6-well plates overnight, then transiently transfected with GFP-fusion expression plasmids. After 16 hours, cells were washed with PBS and fixed in 4% paraformaldehyde. For mitochondrial staining, cells were then incubated with anti-Hsp60 goat IgG (Santa Cruz, USA), followed by anti-goat IgG conjugated with Cy3 (Sigma). For cyt c staining, cells were incubated with monoclonal anti-cyt c IgG (PharMingen), followed by anti-mouse IgG conjugated with Cy5 (Amersham). Fluorescent images were collected and analyzed using a MRC-1024 MP laser-scanning confocal microscope (Bio-Rad). Subcellular fractionation assays were performed as described (Li, et al. 2000 Science 289:1159-1164). Briefly, cells (1×10^7 cells) suspended in 0.5 ml hypotonic buffer (5 mM Tris-HCl, pH 7.4, 5 mM KCl, 1.5 mM MgCl2, 0.1 mM EGTA, pH 8.0, and 1 mM DTT) were homogenized and cell extracts were centrifuged at 500×g for 5 min. […]\nTo study whether the TR3 nuclear-to-mitochondrial targeting pathway also occurs in breast cancer cells, a GFP-TR3 fusion construct was transfected into MDA-MB-231 cells. […] Next, GFP-TR3/ΔDBD was transiently transfected into ZR-75-1 or MDA-MB-231 cells, stained for mitochondria (Hsp60) and cytochrome c (Cyt c), and analyzed by confocal microscopy."}, "[3]": {"tested_on": "MCF-7 breast cancer cells", "assay": "DAPI apoptosis assay in MCF-7 cells", "assay_type": "cell-based", "experimental": "as §1, §2"}, "[4]": {"tested_on": "293T cells", "assay": "Cytochrome c release in 293T cells (confocal microscopy)", "assay_type": "cell-based, human", "experimental": "Subcellular localization assays—Cells were seeded onto cover-slips in 6-well plates overnight, then transiently transfected with GFP-fusion expression plasmids. After 16 hours, cells were washed with PBS and fixed in 4% paraformaldehyde. For mitochondrial staining, cells were then incubated with anti-Hsp60 goat IgG (Santa Cruz, USA), followed by anti-goat IgG conjugated with Cy3 (Sigma). For cyt c staining, cells were incubated with monoclonal anti-cyt c IgG (PharMingen), followed by anti-mouse IgG conjugated with Cy5 (Amersham). Fluorescent images were collected and analyzed using a MRC-1024 MP laser-scanning confocal microscope (Bio-Rad). Subcellular fractionation assays were performed as described (Li, et al. 2000 Science 289:1159-1164). Briefly, cells (1×10^7 cells) suspended in 0.5 ml hypotonic buffer (5 mM Tris-HCl, pH 7.4, 5 mM KCl, 1.5 mM MgCl2, 0.1 mM EGTA, pH 8.0, and 1 mM DTT) were homogenized and cell extracts were centrifuged at 500×g for 5 min. The resulting supernatant was centrifuged at 10,000×g for 30 min at 4° C. to obtain the HM fraction. HM fraction was resuspended in 100 μl lysis buffer (10 mM Tris, pH 7.4, 150 mM NaCl, 1% Triton X-100, 5 mM EDTA, pH 8.0) for immunoblotting analysis.\nThe involvement of TR3/Bcl-2 interaction in TR3-induced cytochrome c release was also studied. […] Nor did transient expression of Bcl-2 alone."}, "[5]": {"tested_on": "peripheral blood lymphocytes (PBLs)", "assay": "Apoptosis of peripheral blood lymphocytes", "assay_type": "cell-based, human", "conditions": "annexin V-staining, transfection", "protocol": "Isolation and transfection of human peripheral blood lymphocytes (PBLs)—Leukocyte-enriched buffy coats from San Diego Blood Bank were diluted with 2 volumes of PBS, and PBLs were isolated by centrifuge on Ficoll-paque™ Plus (Amersham Pharmacia biotech). The mononuclear cells were cultured in RPMI containing 10% FBS and 20 μM Hepes. Freshly isolated cells (10^7 cells per transfection) were washed once with PBS containing 0.5% BSA and supernatant was completely discarded so that no residual PBS/BSA covers the pellet. The cells were resuspended in 100 μl of the human T Cell Nucleofector™ solution (Amexa biosystems) and very gently mixed with 1-4 μg DNA in 5 μl. The cell suspension was transferred into a cuvette supplied by Amexa biosystems and electroporated using U-14 program of Nucleofector™ device. The cells were removed from the cuvette quickly by adding 500 μl of the pre-warmed RPMI medium containing 10% FBS and 20 μM Hepes and transferred into 12 well plates containing 1.5 ml of pre-warmed culture medium."}}, "data": [{"molecule": "B1", "values": [{"measurement": "apoptosis", "setting": "[1]; Calu-6, absence of Bcl-2", "value": "did not show any apoptotic effect"}, {"measurement": "apoptosis", "setting": "[1]; Calu-6, co-expression of Bcl-2", "value": "strong induction of apoptosis"}, {"measurement": "GFP-TR3/ΔDBD subcellular localization", "setting": "[2]", "value": "targeted to mitochondria"}, {"measurement": "cytochrome c release", "setting": "[2]", "value": "caused release of cytochrome c from the mitochondria"}, {"measurement": "apoptosis", "setting": "[3]; MCF-7, absence of Bcl-2", "value": "did not show any apoptotic effect"}, {"measurement": "apoptosis", "setting": "[3]; MCF-7, co-expression of Bcl-2", "value": "strong induction of apoptosis"}, {"measurement": "cytochrome c release", "setting": "[4]; absence of Bcl-2 cotransfection", "value": "did not cause any release of cytochrome c"}, {"measurement": "cytochrome c release", "setting": "[4]; co-expression with Bcl-2/Y108K", "value": "did not induce cyt c release"}, {"measurement": "cytochrome c release", "setting": "[4]; co-transfection with Bcl-2/ΔTM", "value": "did not occur"}, {"measurement": "TR3/ΔDBD and Bcl-2 colocalized cells displaying diffuse cyt c staining", "setting": "[4]; cotransfected with Bcl-2", "value": "Approximately 75%"}, {"measurement": "cytochrome c release", "setting": "[4]; cotransfection with Bcl-2", "value": "significant release of cytochrome c"}, {"measurement": "PBL apoptosis", "setting": "[5]", "value": "potently induced PBL apoptosis"}]}]}
